According to the DeepSol protein solubility set:

Experiment: soluble on expression in E. coli; label from the status in PepcDB or PDB records

Sequence	soluble on expression in E. coli
MDYRQLHRWDLPPEEAIKVQNELRKKIKLTPYEGEPEYVAGVDLSFPGKEEGLAVIVVLEYPSFKILEVVSERGEITFPYIPGLLAFREGPLFLKAWEKLRTKPDVVVFDGQGLAHPRKLGIASHMGLFIEIPTIGVAKSRLYGTFKMPEDKRCSWSYLYDGEEIIGCVIRTKEGSAPIFVSPGHLMDVESSKRLIKAFTLPGRRIPEPTRLAHIYTQRLKKGLFLEHHHHHH	soluble
MDYYRVGTLVNTHGIRGEVKVVVVTDFPEERFKVGQQLSLFKTPDETTGGITVKIAKAREQKGLYFLTFEGLDNINDVERYKGWTIKVPAEALHALPAGEYYYHQIVGLQVVTTADEPLGTIKEILSPGANDVWVVKRDHGQSDVLLPKIPQVIKDVDLDAGVVTVELMEGLIDLEHHHHHH	soluble
MEALAMAGVDYQEWGLSIEEWELQESVVPLHLLADDFKEEEQEEDHQDNDDDDRVLDGLAVKQSVTRDIRASVGKFIEQSMSHMIVHLKQLKFLTLLLENFLFTHVLDFLL	not soluble
MEALGADVTQGLEKGSLITCADNTGARELKVISVHGYSGTKNRHPKAGLGDKITVSVTKGTPEMRRQVLEAVVVRQRKPIRRPDGTRVKFEDNAAVIVDENEDPRGTELKGPIAREVAQRFGSVASAATMIV	soluble
MEALKIALLGGGTVGSAFYNLVLERAEELSAFGVVPRFLGVLVRDPRKPRAIPQELLRAEPFDLLEADLVVEAMGGVEAPLRLVLPALEAGIPLITANKALLAEAWESLRPFAEEGLIYHEASVMAGTPALSFLETLRGSELLELHGILNGTTLYILQEMEKGRTYAEALLEAQRLGYAEADPTLDVEGIDAAHKLTLLARLLVDPGFPFAEVEAQGIARLTPEVLQKAEARGERVRLVASLFGEGGRWRAAVAPRRLPQDHPLARARGNALWVRARPLGEAFVTGPGAGGGATASGLFADLLRFLSGAPGHLPAPRARPPLEEGSPWPGVE	soluble
MEASDLTFTVSVDQTTKHVFDAICNVRGWWSEEIEGNTDKRNETFIYQYEDVHYAKIKVQELIPNEKVVWLVTYNYFKFTKDKSEWTGTTIRFDISAKGDKTEIRFTHYGLNPEFECYDICSNAWGQYIGQSLPDLIKSGKGNPNGKNKPTTADEERFSAKNLEHHHHHH	soluble
MEASMERFDNAPETALAWHRQGLGAALATVVETWGSAPRRVGAQLVIGGDGRIEGSVSGGCVEGAVIVEALEALEEGQARLLEFGVSDEDAFAVGLACGGTIRVLVEPVGQVLSEVMLAELVAARASRQALAYVVDTARGTRALVRDAYPERMRMDRSGFDEDGRTFVAVHNPPLRLIVVGAVHIAQALVPMARIAGYDPVVIDPREAFASDARFPGETILHDWPDEAVAKLGLDARTALVLLTHDPKLDDPALEAALAADVFYIGALGSTRTHAKRVARMQEAGFTEAQIGRIHGPVGLDIGAAGPAEIAVAILAQMTAVLRGRA	soluble
MEAVERAFRALDEGIADYLARKGIRPSCGPGCFACCYGWVTASRLEAQALLPHLTEAQKARVLEEGPRRLALLAREKDDPGFPRRFFLSRSPCPLLEAGLCGVYAHRPLACRGVLTDEDPAYCDPENPHPAPKPHHGPGHFLRVPHRMARRRMEELWEEERAQTGFLVLGELSGLLYLLLTGLPEDREGVEARLEALGVLGGRFGFQVVAAALEHHHHHH	not soluble
MECFRSRIITIYLKRLKYSPLLWRNAKRGTRSSYMWLYVSICCGDFQFWKLSGTPSSPTCKTHSCGFIFWTNTHLLGDQLRYTIMDTIGMYLIIKQRLRNIHKNDPRLFQYVFENGHPLPYNR	not soluble
MEDDDSPSSRDLDAQNPYDRLLALDTSTVDPNCNLDSVSAIYLAMKSSKLECVDERGQDSLITSVCMEDEEDEELDEFDPYLFIKNLPNLSSVVPTFRPVLLPKQTRSCPPISLVLDLDETLVHSTLEPCGEVDFTFPVNFNEEEHMVYVRCRPHLKEFMERVSRLFEIIIFTASQSIYAEQLLNVLDPKRKLFRHRVYRDSCVFFDGNYLKDLSVLGRDLSRVIIVDNSPQAFGFQVENGVPIESWFNDPSDKELLHLLPFLESLIGVEDVRPMIAKKFNLREKIDAAVAAPEYPAEAGDPFER	soluble
MEDVVLPLKKVLRVATEADYKCVAENGDSCQKAFLLCDEKIRERELDMSLVDVDYTFDRNKIIFYFTAEGRVDFRELVKDLASVFRTRIELRQIGVRDEAKLEHHHHHH	not soluble
MEEEHEEESHLSQSDTVGSAIVEDGPGKEYEIYIKNEELVDKLKLLNYEDGFLKLGVVYKPILKHYFVKSKNVGEQFFLFTSLAAWLIKKSGDESYNMPQEFDDPNSTLANIMAAAKNKGIATDFTAAKLKSGAGENVIFILNSLADASLVHVGFQWQKMIPPKEEDEDTAVDEQDEDDDNDDIVEEPMNFLDDDDDDNVIEIDLKAQGLATESKNPLQSVLQSNTDAITWKQEVERVAPQLKITLKQDAKDWRLHLEQMNSMHKNVEQKVGNVGPYLDNMSKDIAKALERIASREKSLNSQLASMMSKFRRATDTRAELREKYKAASVGVSSRTETLDRISDDIEQLKQQIEEQGAKSSDGAPLVKIKQAVSKLEEELQTMNVQIGVFEQSILNTYLRDHFNFSANLLNIM	soluble
MEEIKPASASCVSKEKPSKVSDLISRFEGGSSLSNYSDLKKESAVNLNAPRTPGRHGLTTTPQQKLLSQHLPQRQGNDADKTQGAQTCVANGVMAAQNQMECEEEKAATLSSDTSIQASEPLLDTHIVNGERDETATAPASPTTDSCDGNASDSSYRTPGIGPVLPLEERGAETETKVQERENGESPLELEQLDQHHEMKETNEQKLHKIANELLLTERAYVNRLDLLDQVFYCKLLEEANRGSFPAEMVNKIFSNISSINAFHSKFLLPELEKRMQEWETTPRIGDILQKLAPFLKMYGEYVKGFDNAMELVKNMTERIPQFKSVVEEIQKQKICGSLTLQHHMLEPVQRIPRYEMLLKDYLRKLPPDSLDWNDAKKSLEIISTAASHSNSAIRKMENLKKLLEIYEMLGEEEDIVNPSNELIKEGQILKLAARNTSAQERYLFLFNNMLLYCVPKFSLVGSKFTVRTRVGIDGMKIVETQNEEYPHTFQVSGKERTLELQASSAQDKEEWIKALQETIDAFHQRHETFRNAIAKDNDIHSEVSTAELGKRAPRWIRDNEVTMCMKCKEPFNALTRRRHHCRACGYVVCWKCSDYKAQLEYDGGKLSKVCKDCYQIISGFTDSEEKKRKGILEIESAEVSGNSVVCSFLQYMEKSKPWQKAWCVIPKQDPLVLYMYGAPQDVRAQATIPLLGYVVDEMPRSADLPHSFKLTQSKSVHSFAADSEELKQKWLKVILLAVTGETPGGPNEHPATLDDHPEPKKKSEC	soluble
MEEMGSRSDTIMVASLNRETKEIKLVSVYRDTLLQLSDGTYNKANAAYAYGGEEEAVAMLNKNLDLNIEHYVSVDFSVLVHVIDALGGIDINVEEAENGMDIIPYLNNYVVEVIKNTGVDSAPFTQLGQQHLNGVQATAYARLRYGGGDDYKRTERQRQVLEQIAIKAQKAKLSTINKIIDKVFDNVKTNFTLTETIAYAKDVKSYIFGETQGFPYESTTADLDVGNSVVATDLASDVTKLHQFLFGENDYTPSSTVQSISEDISNSTYDTGESYDTEYDEYGYSQDYSGYDSGYTDNSYGTGGYQDSGYGDGSSGNGYTEDTGGDYVPPSDGGGTDSGSSDSNSQIPDTGTGDSGDTGGESLELEHHHHHH	soluble
MEENLERTESLAREADDCHPIFRIAPSTVEFNKLRKRLLRHIRQAFDDFSMLSSGKKWLVALSGGKDSYGLLALLLDLKWRGLLPVEILACNLDQGQPGFPKHILPDFLNSYQIPHRIEYQDTYSIVTDKLVHTQTYCSLCSRLRRGNLYRIAREEGCSALVLGHHRDDVLETFFMNLFHGGRLAAMPGKLINDEGDLFVLRPLVYAAEEDMEKFSQAMQFPIIPCNLCGSQDGLQRNAMKEMLKDIERKMPGRKDTMIRALTNVRPSHLLDKKFFDFKNLF	not soluble
MEEPKLILTVKNNKNNKCIIEILNRLYLKDLNSKAEEIIKNVILVYTSLTPIMAYGLLISAPPSCLAKIYPVDLVIHSVKEREIIDKITEFLKKNIQFKTFYVDCYDRGIKINCREVEIGIGIGLRGFASVDYKNPEKVIVVNVIKDSTYMSVIKKGQEKVSVISLR	soluble
MEERELVEYFRGQIREDPDVASAVAAIRSLLEFLKRDQSETILGLRENMTQAIHRLQEADPSVAVSSGGELFLRFISLTSLEHPDLSQCKNVMIERGELFLKKISLSRGKVGKLCHTFIKDGAKILTHSSSRVVLKVLENAAADNKRFTVKLMAEKLRKLSIPVTVVLDAAVGYILEKVDLVIVGAEGVVESGGVINKIGTYQMAVCSKAHNKPFYVVAESFKFVRLYPLNQQDVPDRFKYKADVLKTAEDLNQEHPLIDYTPSSLITLLFTDLGVLTPSAVSDELIKLYL	soluble
MEERLNRVKQQLQQSSYKLTPQREATVRVLIENEKDHLSAEDVYLKVKDKAPEIGLATVYRTLELLAELKVVDKINFGDGVARFDLRKEGAKHFHHHLVCMECGRVDEIDEDLLPEVENRVENEFNFKILDHRLTFHGVCETCQAKGKG	not soluble
MEERMEMISERPKESMYSWNKTAEKSDFEAVEALMSMSCSWKSDFKKYVENRPVTPVSDLSEEENLLPGTPDFHTIPAFCLTPPYSPSDFEPSQVSNLMAPAPSTVHFKSLSDTAKPHIAAPFKEEEKSPVSAPKLPKAQATSVIRHTADAQLCNHQTCPMKAASILNYQNNSFRRRTHLNVEAARKNIPCAAVSPNRSKCERNTVADVDEKASAALYDFSVPSSETVICRSQPAPVSPQQKSVLVSPPAVSAGGVPPMPVICQMVPLPANNPVVTTVVPSTPPSQPPAVCPPVVFMGTQVPKGAVMFVVPQPVVQSSKPPVVSPNGTRLSPIAPAPGFSPSAAKVTPQIDSSRIRSHICSHPGCGKTYFKSSHLKAHTRTHTGEKPFSCSWKGCERRFARSDELSRHRRTHTGEKKFACPMCDRRFMRSDHLTKHARRHLSAKKLPNWQMEVSKLNDIALPPTPAPTQ	soluble
MEERNHENTLEKDLEAVGQEAQALEERLKAAEEELKGLKDKYLRLLADFDNYRKRMEEELKAREREGVLKALRALLPVLDDLDRALEFAEASPESIRQGVRAIRDGFFRILAGLGVEEVPGEGEAFDPRYHEAVGLLPGEPGKVAKVFQRGFRMGEALVRPARVAVGEEKREEADLE	soluble
MEEVFTAALESKIFRKRWVLLPDYVPDVLPHREAELRRLAEVLAPALRGEKPSNALLYGLTGTGKTAVARLVLRRLEARASSLGVLVKPIYVNARHRETPYRVASAIAEAVGVRVPFTGLSVGEVYERLVKRLSRLRGIYIIVLDEIDFLPKRPGGQDLLYRITRINQELGDRVWVSLVGITNSLGFVENLEPRVKSSLGEVELVFPPYTAPQLRDILETRAEEAFNPGVLDPDVVPLCAALAAREHGDARRALDLLRVAGEIAERRREERVRREHVYSARAEIERDRVSEVVRTLPLHAKLVLLSIMMLEDGGRPASTGEIYERYKELTSTLGLEHVTLRRVSGIISELDMLGIVKSRVVSRGRYGKTREVSLDADRLAVENALSEDPFVARLL	not soluble
MEEVYASELRGREPETVDTLFLDNTQGGVIGGINEKLTKLELLSMVKCGLTTLKGMPVLPALNYLDLSDNELGDDASFDVLIKCAPEIKKITLSGNRLTLDNVRTLKMLPNLMELDLSNNSSLGLLDDYRVKMFEMIPSLKILDGCDVDGEEVEEEFAAGEGAEDSDEGDSDEDGPGLSYLNKSQFSDDETDDYVVPEAGDAETRGAKRAASADCDEPEAKKSAE	soluble
